Measured values reported in patent publication US20260234276A1 (DOMAIN THERAPEUTICS, published 2026).
Substitutions are numbered along the chain they refer to. Where “and” joins values, the source holds several entries; their conditions need not be identical. Equal entries are not always repeated.

B1: 3-14 (antibody, V domains shown)
VH: EVQLVESGGGLVQPTGSLRLSCAASGFTFNAYAMNWVRQAPGKGLEWVARIRSKSNDYATYYGDSVKDRFTISRDDSQSMLYLQMNNLKTEDTAMYYCVRGREAYYRYDGGYYAMDYWGQGTSVTVSS
VL: DIVMTQAAPSVSVTPGESVSISCTSSKSLLHSNGNTYLYWFLQRPGQSPQLLIYRMSNLASGVPDRFSGSGSGTAFTLRISRVEAEDVGVYYCMQHREYPFTFGSGTKLEIK
B2: 3-30 (antibody, V domains shown)
VH: B1 VH with T15K, D57N, S79T, G111D
VL: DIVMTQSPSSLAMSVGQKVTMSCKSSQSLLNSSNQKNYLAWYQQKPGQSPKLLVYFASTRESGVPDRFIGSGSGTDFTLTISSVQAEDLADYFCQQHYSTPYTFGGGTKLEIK
B3: 3-45 (antibody, V domains shown)
VH: EVQLVETGGGLVQPKGSLKLSCAASGFTFNANAMNWVRQAPGKGLEWVARIRSKSNNYATYYADSVKDRFTISRDDSQSMLYLQMNNLKTEDTAMYYCVRGSDNYIFYAMDYWGQGTSVTVSS
VL: B1 VL with S12P, T24R, R97L, S105G
B4: 3-32 (antibody, V domains shown)
VH: B1 VH with T15K, R19K, V48L, D57N, G63A, L81F, T90S
VL: B1 VL with D1E, P9L, V11A, S12P, I21M, T24R, R97L
B5: 3-29 (antibody, V domains shown)
VH: QVHLVETGGGLVRPGNSLKLSCVTSGFTLSNYRMHWLRQPPGKRLEWIAVIKVKSDNYGANYAESVKGRFTISRDDAKSSVYLQMNRLREEDTATYYCSRPDGFSPFVYWGQGTLVTVSA
VL: DIKMTQSPSSMYASLGERVTITCKASQDINSYLSWFQQKPGKSPKTLIYRANRLVDGVPSRFSGSGSGQDYFLTISSLEYEDMGIYYCLQYGEFPPTFGAGTKLELK
B6: 3-28 (antibody, V domains shown)
VH: EVQLQQSGPELLKPGTSVKISCTTSGYTFSDYTLHWVKQSHGKSLEWIGGITPKNGDTRYDPRFKDKATLTIDKSSSAAYMELRSLTSEDSAVYYCARVARFYGVSPYAMDYWGQGASVTVSS
VL: DVVMTQTPLSLPVSLGDQASISCRCTQSLLHSNGDTYLHWYLQKPGQSPKLLIYKVSNRFSGVPDRFSGSGSGTDFTLEITRVEAEDLGVYFCSQTTHVPYTFGGGTKLEIK
B7: 3-49 (antibody, V domains shown)
VH: EVQLQQSGPELVKPGASVKISCKTSGYTFTEYTMHWVKQSHGKSLEWIGGINPNNGDTNYNQKFMGKATLTVDKSSSTAYMELRSLTSEDSAVYYCVRRLLRRGAMDYWGQGTSVTVSS
VL: DIVLTQSPASLAVSLGQRATISCRASENVEYYGTSLMQWFQQKPGQPPKLLIYAASNVDSGVPARFSGSGSGTDFSLNIHPVEEDDIAMYFCQQSRKVPWTFGGGTKLDIK
B8: 3-48 (antibody, V domains shown)
VH: QVQLVETGGGLVRPGNSLKLSCVTSGFTFSNYRMHWLRQPPGKRLEWIAVIKVKSDNYGANYAESVKGRFTISRDDSKSSVYLQVNRLREEDTATYYCSSPTYPGSSGFAYWGQGTLVTVSA
VL: DIQMTQTTSSLSASLGDRVTISCRASQDISNYLNWYQQKPDGTVKLLIYYTSRLHSGVPSRFSGSGSGTDYSLTISNLEQEDIATYFCQQGNKFPPTFGGGTKLEIN

Target: T1, human CCR8 (human, UniProt P51685 1-355)
Test: cell-based or functional assay

Row | IC50 (Gi2 BRET, pH 6.5) | IC50 (Gi2 BRET, pH 7.4) | Binder
1 | 0.034 µg/ml and 0.225 nM | 0.065 µg/ml and 0.434 nM | B1
2 | 0.053 µg/ml and 0.355 nM | 0.063 µg/ml and 0.421 nM | B2
3 | 0.031 µg/ml and 0.208 nM | 0.017 µg/ml and 0.115 nM | B3
4 | 0.071 µg/ml and 0.476 nM | 0.089 µg/ml and 0.596 nM | B4
5 | 0.011 µg/ml and 0.073 nM | 0.007 µg/ml and 0.047 nM | B5
6 | 0.044 µg/ml and 0.292 nM | 0.061 µg/ml and 0.405 nM | B6
7 | 0.036 µg/ml and 0.237 nM | 0.006 µg/ml and 0.039 nM | B7
8 | 0.014 µg/ml and 0.095 nM | 0.004 µg/ml and 0.026 nM | B8

Target: T1, human CCR8
Test: flow cytometry, hCCR8 transfected CHOK1 cells
Experimental: Briefly, 1·10⁵ cells per well in a 96 well plate were incubated with a dilution of unconjugated anti-CCR8 mAb at 10 μg/mL then diluted at 1/3.33, 4 dilution points (during 30 min at 4° C.). […] To determine EC50 value, 8 concentrations of anti-CCR8 mAb were tested. Unbound antibodies were washed away with PBS (Invitrogen by Thermofisher Scientific, Illkirch-Graffenstaden, France) supplemented by 2% Fetal Bovine Serum (Invitrogen by Thermofisher Scientific, Illkirch-Graffenstaden, France) and 2 mM EDTA (Invitrogen by Thermofisher Scientific, Illkirch-Graffenstaden, France). Subsequently, cells are centrifuged (5 min at 400 g) and bound antibody is detected with F(ab′)₂-Goat anti-Mouse IgG (H+L) Cross-Adsorbed Secondary Antibody, Alexa Fluor 488 (dilution 1/500) (Invitrogen by Thermofisher Scientific, Illkirch-Graffenstaden, France) or with F(ab′)₂-Goat anti-Human IgG Fc Secondary Antibody, PE (Invitrogen by Thermofisher Scientific, Illkirch-Graffenstaden, France) (dilution 1/1000) at 4° C. for 30 min. Detection reagent is washed away and cells are centrifuged (5 min at 400 g) and resuspended in 30 μL PBS. Bound detection antibody is quantified on a MacsQuant16 (Miltenyi, Gladbach, Germany) (B1 or B2 channel, 5000 events per acquisition).

Row | % positive cells [%] | MFI fold change to isotype ctrl [fold] | Binder
9 | 66.8 | 5.06 | B1
10 | 68.5 | 5.12 | B2
11 | 67.8 | 6.11 | B3
12 | 81.8 | 16.2 | B4
13 | 71.3 | 6.26 | B5
14 | 81.1 | 10.7 | B6
15 | 73.4 | 6.52 | B7
16 | 83 | 17.6 | B8

Target: T1, human CCR8
Test: cell-based or functional assay
Remark: another data set of the same source

Row | hCCL1 (100 nM) residual response, Protocol #2, mAb 0.08 µg/mL [%] | hCCL1 (100 nM) residual response, Protocol #2, mAb 0.4 µg/mL [%] | hCCL1 (100 nM) residual response, Protocol #2, mAb 10 µg/mL [%] | hCCL1 (100 nM) residual response, Protocol #3, mAb 0.05 µg/mL [%] | hCCL1 (100 nM) residual response, Protocol #3, mAb 0.5 µg/mL [%] | hCCL1 (100 nM) residual response, Protocol #3, mAb 5 µg/mL [%] | Binder
17 | 72 | 49 | 28 | 75 | 36 | 22 | B1
18 | 70 | 44 | 51 | 78 | 55 | 43 | B2
19 | 99 | 85 | 68 | 86 | 75 | 48 | B3
20 | 88 | 57 | 46 | 73 | 36 | 36 | B4
21 | 73 | 51 | 24 | 69 | 38 | 30 | B5
22 | 79 | 38 | 17 | 102 | 64 | 47 | B6
23 | 99 | 102 | 95 | 102 | 97 | 67 | B7
24 | 93 | 89 | 48 | 92 | 68 | 50 | B8

Target: pm5 (human, sulfated tyrosines at Y15 and Y17)
Test: ELISA on coated peptide [cont.]
Experimental: (§1) The specific binding properties of antibodies were evaluated by ELISA with coated CCR8 related peptides (500 ng/mL) in carbonate/bicarbonate buffer. Different peptides were used as described in Table 1 (see Example 1). Each anti-CCR8 mAb was tested at 1 μg/mL then diluted at 1/10. After an incubation at room temperature during 90 min, unbound mAbs were removed by washings. […] After washings, 3,3′,5,5′-tetramethylbenzidine (TMB) (Interchim, Montlugon, France) was added for 15 min. Then the optical density (OD) was determined by using a multiplate reader (Tecan, Lyon, France) and correlated with mAb reactivity on the panel of coated peptides.

pm5 (human, sulfated tyrosines at Y15 and Y17), sequence (peptide, as listed by the source): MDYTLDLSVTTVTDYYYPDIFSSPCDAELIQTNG

Row | binding result | Binder
25 | binds | B1
26 | binds | B2
27 | binds | B3
28 | binds | B4
29 | binds | B5
30 | binds | B6
31 | binds | B7
32 | binds | B8

Target: pm6 (human, sulfated tyrosines at Y16 and Y17)
Test: ELISA on coated peptide [cont.]
Experimental: as §1

pm6 (human, sulfated tyrosines at Y16 and Y17), sequence (peptide, as listed by the source): as above

Row | binding result | Binder
33 | binds | B1
34 | binds | B2
35 | binds | B3
36 | binds | B4
37 | binds | B5
38 | binds | B6
39 | binds | B7
40 | binds | B8

Target: pm8 (human, sulfated tyrosines at Y15, Y16 and Y17)
Test: ELISA on coated peptide [cont.]
Experimental: as §1

pm8 (human, sulfated tyrosines at Y15, Y16 and Y17), sequence (peptide, as listed by the source): as above

Row | binding result | Binder
41 | binds | B1
42 | binds | B2
43 | binds | B3
44 | binds | B4
45 | binds | B5
46 | binds | B6
47 | binds | B7
48 | binds | B8

Target: pm3 (human, sulfated tyrosine at Y17)
Test: ELISA on coated peptide [cont.]
Experimental: as §1

pm3 (human, sulfated tyrosine at Y17), sequence (peptide, as listed by the source): as above

Row | binding result | Binder
49 | binds | B1
50 | binds | B2
51 | binds | B3
52 | binds | B4
53 | binds | B5
54 | binds | B6
55 | binds | B7
56 | binds | B8
